From US20260266848A1, “COMPOSITIONS AND METHODS FOR DIAGNOSING AND TREATING DYSTONIA” (Duke University, priority 2023, published 2026)

Experiments:
DYT-TOR1A MEF EVs = experiment: Quantitative LC-MS/MS proteomics of EVs from drug-treated DYT-TOR1A MEF cultures (ritonavir, salubrinal); format: cell-based, mouse; parameters: key to RTV Corrective Direction / RTV Corrective Direction, Grwd1 / RTV Corrective Direction, Srrm2 / RTV Corrective Direction, Rbm17 / RTV Corrective Direction, Dcaf8 / RTV Corrective Direction, Edil3 / RTV Corrective Direction, Timp3 / RTV Corrective Direction, Heatr3 / RTV Corrective Direction, Brd4 / RTV Corrective Direction, P3h4 / RTV Corrective Direction, Pacsin3 / RTV Corrective Direction, Naa50 / RTV Corrective Direction, Lpar6 / RTV Corrective Direction, Ndrg1 / RTV Corrective Direction, Kntc1 / RTV Corrective Direction, Cdk11b / RTV Corrective Direction, Sumo1 / RTV Corrective Direction, Lsm4 / RTV Corrective Direction, Hmga2 / RTV Corrective Direction, Cstf1 / RTV Corrective Direction, Tes / RTV Corrective Direction, Sbno1 / RTV Corrective Direction, Unc119b / RTV Corrective Direction, Cfdp1 / RTV Corrective Direction, Sec61b: YES = protein abundance effect opposite to DYT/WT; settings: EV protein abundance; for RTV Corrective Direction: DYT + RTV (ritonavir) vs DYT, direction compared with DYT/WT; for DYT + RTV/DYT Cohen's d: ritonavir (RTV)-treated DYT vs DYT
WT MEF EVs = experiment: Quantitative LC-MS/MS proteomics of EVs from ISRIB-treated WT MEF cultures; format: cell-based, mouse; parameters: key to ISRIB and DYT Parallel Direction / ISRIB and DYT Parallel Direction, Ctdsp1 / ISRIB and DYT Parallel Direction, Pcdh19 / ISRIB and DYT Parallel Direction, Tspan7 / ISRIB and DYT Parallel Direction, Myo1e / ISRIB and DYT Parallel Direction, Plpp3 / ISRIB and DYT Parallel Direction, Sh3bp4 / ISRIB and DYT Parallel Direction, Dnajc7 / ISRIB and DYT Parallel Direction, Drg1 / ISRIB and DYT Parallel Direction, Maea: YES = protein abundance effect similar to DYT/WT; settings: EV protein abundance; for WT + ISRIB/WT Cohen's d: ISRIB-treated WT vs WT; for ISRIB and DYT Parallel Direction: WT + ISRIB vs WT, direction compared with DYT/WT

Row | Molecule | RTV Corrective Direction (DYT-TOR1A MEF EVs) | DYT + RTV/DYT Cohen's d (DYT-TOR1A MEF EVs) | WT + ISRIB/WT Cohen's d (WT MEF EVs) | ISRIB and DYT Parallel Direction (WT MEF EVs)
1 | Apex1 (protein, UniProt P28352 2-317, looked up) DNA repair nuclease/redox …: PKRGKKAAADDGEEPKSEPETKKSKGAAKKTEKEAAGEGPVLYEDPPDQKTSPSGKSATLKICSWNVDGLRAWIKKKGLDWVKEEAPDILCLQETKCSENKLPAELQELPGLTHQYWSAPSDKEGYSGVGLLSRQCPLKVSYGIGEEEHDQEGRVIVAEFESFVLVTAYVPNAGRGLVRLEYRQRWDEAFRKFLKDLASRKPLVLCGDLNVAHEEIDLRNPKGNKKNAGFTPQERQGFGELLQAVPLADSFRHLYPNTAYAYTFWTYMMNARSKNVGWRLDYFLLSHSLLPALCDSKIRSKALGSDHCPITLYLAL | YES | 8.06 | −0.67 | YES
2 | Gmpr2 (protein, UniProt Q99L27 1-348, looked up) GMP reductase 2: MPHIDNDVKLDFKDVLLRPKRSTLKSRSEVELTRSFSFRNSKQMYSGIPVIAANMDTVGTFEMARVLCKFSLFTAIHKHYSIHQWQEFASQNPDCLECLAASSGSGSADFEQLEQILEAIPQVKYICLDVANGYSEHFVEFVKDVRKRFPQHTIMAGNVVTGEMVEELILSGADIIKVGIGPGSVCTTRKKTGVGYPQLSAVMECADAAHGLKGHIISDGGCSCPGDVAKAFGAGADFVMLGGMLAGHSESGGELIERDGKKYKLFYGMSSEMAMKKYSGGVAEYRASEGKIVEVPFKGDVEHTIRDILGGIRSTCTYVGAAKLKELSRRTTFIRVTQQVNPIFSNSQ | YES | 5.10 | −2.98 | YES
3 | Eif2b1 (protein, UniProt Q99LC8 1-305, looked up) Translation initiation factor …: MEDGELIEYFKSQMKGDPKMASAVAAIQTLLEFLKRDKGETLQGLRANLTYAIKTLCGVDSSVAVSSGGELFLRFISLTSLEYSDYSKCKKIMIERGELFLRRISLSRNKIANLCHTFIKDGARILTHAYSRVVLRVLEEAVAAKKRFSVYITESQPDLSGKKMAKALSHLNVPVTVVLDAAVGYIMEKADLVIVGAEGVVENGGIINKIGTNQMAVCAKAQNKPFYVVAESFKFVRLFPLNQEDVPDKFKYKADTLKSVQTGQDLKEEHPWVDYTSPSLITLLFTDLGVLTPSAVSDELIKLYL | YES | 5.03 | −0.70 | YES
4 | Hmgcs1 (protein, UniProt Q8JZK9 1-520, looked up) Hydroxymethylglutaryl-CoA …: MPGSLPLNAEACWPKDVGIVALEIYFPSQYVDQAELEKYDGVDAGKYTIGLGQARMGFCTDREDINSLCLTVVQKLMERHSLSYDCIGRLEVGTETIIDKSKSVKSNLMQLFEESGNTDIEGIDTTNACYGGTAAVFNAVNWVESSSWDGRYALVVAGDIAIYATGNARPTGGVGAVALLIGPNAPLIFDRGLRGTHMQHAYDFYKPDMLSEYPVVDGKLSIQCYLSALDRCYSVYRKKIRAQWQKEGKDKDFTLNDFGFMIFHSPYCKLVQKSLARMFLNDFLNDQNRDKNSIYSGLEAFGDVKLEDTYFDRDVEKAFMKASSELFNQKTKASLLVSNQNGNMYTSSVYGSLASVLAQYSPQQLAGKRVGVFSYGSGLAATLYSLKVTQDATPGSALDKITASLCDLKSRLDSRTCVAPDVFAENMKLREDTHHLANYIPQCSIDSLFEGTWYLVRVDEKHRRTYARRPFTNDHSLDEGMGLVHSNTATEHIPSPAKKVPRLPATSAESESAVISNGEH | YES | 7.26 | −0.06 | YES
5 | Spr (protein, UniProt P35270 1-261, looked up) Sepiapterin reductase: MEGGLGRAVCLLTGASRGFGRTLAPLLASLLSPGSVLVLSARNDEALRQLEAELGAERSGLRVVRVPADLGAEAGLQQLLGALRELPRPKGLQRLLLINNAGSLGDVSKGFVDLSDSTQVNNYWALNLTSMLCLTSSVLKAFPDSPGLNRTVVNISSLCALQPFKGWALYCAGKAARDMLFQVLALEEPNVRVLNYAPGPLDTDMQQLARETSVDPDMRKGLQELKAKGKLVDCKVSAQKLLSLLEKDEFKSGAHVDFYDK | YES | 3.69 | −3.64 | YES
6 | Tars (protein, UniProt Q9D0R2 1-722, looked up) Threonine--tRNA ligase 1, …: MSQEKASSPSGKMDGEKPVDASEEKRKEGGKKKSKDGGGDGGRAELNPWPEYINTRLDMYNKLKAEHDSILAEKAAKDSKPIKVTLPDGKQVDAESWKTTPYQIACGISQGLADNTVVAKVNKVVWDLDRPLETDCTLELLKFEDEEAQAVYWHSSAHIMGEAMERVYGGCLCYGPPIENGFYYDMYLEEGGVSSNDFSSLETLCKKIIKEKQTFERLEVKKETLLEMFKYNKFKCRILNEKVNTPTTTVYRCGPLIDLCRGPHVRHTGKIKTLKIHKNSSTYWEGKADMETLQRIYGISFPDPKLLKEWEKFQEEAKNRDHRKIGRDQELYFFHELSPGSCFFLPKGAYIYNTLMEFIRSEYRKRGFQEVVTPNIFNSRLWMTSGHWQHYSENMFSFEVEKEQFALKPMNCPGHCLMFDHRPRSWRELPLRLADFGVLHRNELSGALTGLTRVRRFQQDDAHIFCAMEQIEDEIKGCLDFLRTVYSVFGFSFKLNLSTRPEKFLGDIEIWNQAEKQLENSLNEFGEKWELNPGDGAFYGPKIDIQIKDAIGRYHQCATIQLDFQLPIRFNLTYVSHDGDDKKRPVIVHRAILGSVERMIAILTENYGGKWPFWLSPRQVMVVPVGPTCDEYAQKVRQQFHDAKFMADTDLDPGCTLNKKIRNAQLAQYNFILVVGEKEKASGTVNIRTRDNKVHGERTVEETVRRLQQLKQTRSKQAEEEF | YES | 6.28 | −1.16 | YES
7 | Rab3gap2 (protein, UniProt Q8BMG7 1-1366, looked up) Rab3 GTPase-activating …: MACSIVQFCSFQDLQSARDFLFPHLREETPGALKRDPSKTSSWEDDSWGAWEETEPREPEEEGNTSKTQKNSWLQECVLSLSPTSDLMVIAREQKAAFLVRKWKHGDKGKEEMQFAVGWSGSVSAEEGEYVTSALCIPLASQKRSSTGRPDWTCIVVGFTSGYVRFYTEGVLLLAQLLNEDKVLQLKCRTYEIPRHPGVTEQNEELSILYPAAIVTIDGFSLFQSLRACRNQVAKAAASGNENIQPPPLAYKKWGLQDIDTIIDHASVGIMTLSPFDQMKTASNIGGFNAAIKNSPPAMSQYITVGSSPFTGFFYALEGSTQPLLSHVALAVASKLTSALFSAASGWLGWKSKHEEDTVQKQKPKMEPATPLAVRFGLPDSRRHGESICLSPCNTLAAVTDDFGRVILLDVARGIAIRMWKGYRDAQVGWIQIVEDLHERVPEKGGFSPFGNTQGPSRVAQFLVIYAPRRGILEVWNTQQGPRVGAFNVGKHCRLLYPGYKIMGLNNVTSQSWQPQTYQICLVDPVSASVKAVNVPFHLALSDKKSERAKDLHLVKKLSALLRAKSPRPDSFETEIKELILDIKYPATKKQALESILASDRLSFSCLRNVTQTLMDTLKNQELESVDEGLLQFCASKLKLLHLYESVSQLNTLDFHSDTPFSDNDLAVLLRLDDKELLKLRALLEKYKQENTKATVRFSEDADRVLPVKTFLEYLEYEKDALSIRKIGEEECVALGSFFFWKCLHGKSSTEEMCHSLESAGLSPQQLLSLLLSVWLSKEKDILDKPQSVCCLHTMLSLLSKMKVAIDETWDSQSVSPWWQQMRMACIQSENSGAALLSAHVGHSVAAQMSSGATDKKFSQMELDADAEALTDSWEALSLDTEYWKLLLRQLEDCLILQTLLHSKLSPPAAKAPSLQSEPLPRLSVKKLLEGGKGGIADSVAKWIFKQDLSPELLKCANKERDVENPDEPREDLLHLAYEQFPCSLELDVLHAHCCWEYVVQWNKDPEEARFLVRSIEHLKQILNPHVQNGIALMMWNTFLVKRFSAATYLMDKVGKSPKDRLCRRDVGMSDTALTSFLGSCLELLQTSLEADISRDEVQVPVLDTEDAWLSVEGPISIVELALEQKPIHYPLVEHHSVLCSILYASMRFSLKSVKPLALFDSKGKNAFFKDLTSIQLLPSGEMDPNFISVRQQFLLKVVSAAVQAQHSKDKDPSAEAANTHWKDLNWPGLAVDLAHHLQVSDDVIRRHYVGELYSHGADLLGEEAIFQVQDKEVLASQLLVLTGQRLAHALFHTQTKEGMELLARLPPTLCTWLKAMNPQDLQNTGVPIAATAKLVHKVMELLPEKHGQYSLALHLIDAVEAMATL | YES | 4.70 | −0.43 | YES
